Molecular target: beta2-microglobulin, monomer at pH 3.6 (biotinylated, partially folded) (human, UniProt P61769 21-119)
Test: SPR; pH 3.6, 250 mM NaCl; apparent, 1:1 fit; SPR: Buffer A pH 3.6, 250 mM NaCl, 25 C, 0.5 uM RNA; dot blot: Buffer A pH 7.0, 1 M NaCl, 10 ug/ml BSA and yeast tRNA, 21 C (Buffer A composition not given)
Details: protein: recombinant; tags: biotin; interrupted stem-loop (Mfold)

Sequence of beta2-microglobulin, monomer at pH 3.6 (biotinylated, partially folded) (P61769 21-119): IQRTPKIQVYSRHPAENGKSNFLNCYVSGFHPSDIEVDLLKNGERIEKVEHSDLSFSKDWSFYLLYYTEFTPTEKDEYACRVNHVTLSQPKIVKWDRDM

B1: M-2 (structured_RNA)
RNA: GGGCCAAGCUUGCAUGCCUGCAGUUGGUUACGCGUACAGUGAAACUCGGAAAGUUGAAGGGCCAAAUGGGAACGGUACCGAGCUCAGGUUCCC
Work on B1 yielded a Kd of roughly 10 nM.
